Experimental data reported in patent US20210163614A1 (GMAX BIOPHARM, published 2021).

T1: human APJ (apelin receptor) (human, UniProt P35414 1-380)
T1 construct: Expressed on the membrane of stably transfected CHO-DHFR- cells; also called hAPJ; APJ receptor
T1 sequence: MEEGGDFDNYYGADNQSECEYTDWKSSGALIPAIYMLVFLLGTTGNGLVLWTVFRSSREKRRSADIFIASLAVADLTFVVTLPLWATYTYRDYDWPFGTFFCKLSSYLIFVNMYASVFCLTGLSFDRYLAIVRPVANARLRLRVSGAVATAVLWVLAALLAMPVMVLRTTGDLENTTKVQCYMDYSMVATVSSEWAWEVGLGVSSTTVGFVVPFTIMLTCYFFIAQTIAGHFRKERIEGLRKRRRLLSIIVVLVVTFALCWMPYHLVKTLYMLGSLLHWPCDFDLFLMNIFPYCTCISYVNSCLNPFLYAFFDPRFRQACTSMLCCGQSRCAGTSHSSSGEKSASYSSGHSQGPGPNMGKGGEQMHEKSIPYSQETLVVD


What follows are binders tested against T1, human APJ (apelin receptor) (assay: cell-based or functional assay).

Binder	EC50, reporter gene assay, activation of Elabela/APJ signaling pathway [nM]
fusion protein of hAPJ antibody L5H5 and Linker2-EA1 (protein, not shown: a dimerising Fc or GST; large carriers) heavy (part 1 of 2): EIQLVESGGGLVKPGGSLRLSCAASGFTFSSYAMSWVRQAPGKGLEWVASISSGGSIYLPDSLKGRFTISRDNAKNSLYLQMNSLRAEDTAVYYCTRGRGNSSAWFAYWGQGTLVTVSS heavy (part 2 of 2): GGGGSGGGGSQRPRLHSRVPFP light: DVLMTQSPLSLPVTLGQPASISCRSDQSLVHRTGNTHLDWYQQRPGQSPRLLIYKVSNRFSGVPDRFSGSGSGTDFTLKISRVEAEDVGVYYCFQASHIPFTFGQGTKVEIKR	4.95
fusion protein of hAPJ antibody L5H5 and Linker2-EA2 (protein, not shown: a dimerising Fc or GST; large carriers) heavy (part 1 of 2): EIQLVESGGGLVKPGGSLRLSCAASGFTFSSYAMSWVRQAPGKGLEWVASISSGGSIYLPDSLKGRFTISRDNAKNSLYLQMNSLRAEDTAVYYCTRGRGNSSAWFAYWGQGTLVTVSS heavy (part 2 of 2): GGGGSGGGGSQRPRLSHKGPFP light: DVLMTQSPLSLPVTLGQPASISCRSDQSLVHRTGNTHLDWYQQRPGQSPRLLIYKVSNRFSGVPDRFSGSGSGTDFTLKISRVEAEDVGVYYCFQASHIPFTFGQGTKVEIKR	2.16

More lines, now with the values ahead:

EC50, reporter gene assay, activation of Elabela/APJ signaling pathway [nM]	Binder
3.61	fusion protein of hAPJ antibody L5H5 and Linker2-Elabela-11 (protein, not shown: a dimerising Fc or GST; large carriers) heavy (part 1 of 2): EIQLVESGGGLVKPGGSLRLSCAASGFTFSSYAMSWVRQAPGKGLEWVASISSGGSIYLPDSLKGRFTISRDNAKNSLYLQMNSLRAEDTAVYYCTRGRGNSSAWFAYWGQGTLVTVSS heavy (part 2 of 2): GGGGSGGGGSCMPLHSRVPFP light: DVLMTQSPLSLPVTLGQPASISCRSDQSLVHRTGNTHLDWYQQRPGQSPRLLIYKVSNRFSGVPDRFSGSGSGTDFTLKISRVEAEDVGVYYCFQASHIPFTFGQGTKVEIKR
2.55	fusion protein of hAPJ antibody L5H5 and Linker2-EA5 (protein, not shown: a dimerising Fc or GST; large carriers) heavy (part 1 of 2): EIQLVESGGGLVKPGGSLRLSCAASGFTFSSYAMSWVRQAPGKGLEWVASISSGGSIYLPDSLKGRFTISRDNAKNSLYLQMNSLRAEDTAVYYCTRGRGNSSAWFAYWGQGTLVTVSS heavy (part 2 of 2): GGGGSGGGGSQRRCMPLHSRVPAP light: DVLMTQSPLSLPVTLGQPASISCRSDQSLVHRTGNTHLDWYQQRPGQSPRLLIYKVSNRFSGVPDRFSGSGSGTDFTLKISRVEAEDVGVYYCFQASHIPFTFGQGTKVEIKR
5.4	fusion protein of hAPJ antibody L5H5 and Linker2-EA4 (protein, not shown: a dimerising Fc or GST; large carriers) heavy (part 1 of 2): EIQLVESGGGLVKPGGSLRLSCAASGFTFSSYAMSWVRQAPGKGLEWVASISSGGSIYLPDSLKGRFTISRDNAKNSLYLQMNSLRAEDTAVYYCTRGRGNSSAWFAYWGQGTLVTVSS heavy (part 2 of 2): GGGGSGGGGSQRRCLSHKGPMPF light: DVLMTQSPLSLPVTLGQPASISCRSDQSLVHRTGNTHLDWYQQRPGQSPRLLIYKVSNRFSGVPDRFSGSGSGTDFTLKISRVEAEDVGVYYCFQASHIPFTFGQGTKVEIKR
20.3	fusion protein of hAPJ antibody L5H5 and Linker2-EA3 (protein, not shown: a dimerising Fc or GST; large carriers) heavy (part 1 of 2): EIQLVESGGGLVKPGGSLRLSCAASGFTFSSYAMSWVRQAPGKGLEWVASISSGGSIYLPDSLKGRFTISRDNAKNSLYLQMNSLRAEDTAVYYCTRGRGNSSAWFAYWGQGTLVTVSS heavy (part 2 of 2): GGGGSGGGGSQRRCMPLHSRVPMPF light: DVLMTQSPLSLPVTLGQPASISCRSDQSLVHRTGNTHLDWYQQRPGQSPRLLIYKVSNRFSGVPDRFSGSGSGTDFTLKISRVEAEDVGVYYCFQASHIPFTFGQGTKVEIKR

What follows are binders tested against T1, human APJ (apelin receptor) (assay: FACS on CHO-DHFR-hAPJ cells, antibody at 500 nM and 4 nM, blank CHO-DHFR- cells as negative control).
Procedure: PBS containing EDTA was used to detach and collect 10⁵ CHO-DHFR-hAPJ cells into 1.5 mL EP tubes. The supernatant was removed after centrifugation. The negative control sample was resuspended with a FACS loading buffer (PBS, 2% FBS). For the positive control, 200 μL antibody supernatant with certain concentration was added to resuspend cells and then incubated at room temperature; the cells were then centrifuged at 1500 rpm to remove the supernatant, washed with a FACS loading buffer and centrifuged again. The cells were resuspended followed by addition (200 μL/well) of a FITC labeled goat anti-mouse fluorescent secondary antibody at 1:50 dilution and incubated at room temperature for 30 min in the dark. Supernatant was removed after centrifugation, cells were washed with FACS loading buffer, centrifuged again and resuspended with the loading buffer for analysis.

binding result	Binder
binds	hAPJ antibody L1H1 (antibody, V domains shown, also called mouse ascites antibody L1H1) VH: EVQLIETGGGLVQPTGSLQLSCAASGFPFNINAMNWVRQAPGKGLEWVARIRSKSNNYATYYADSVKDRFTISRDDSQSILYLQMNNLKTEDSAMYFCVRGPYLYAMDYWGQGTSVTVSS VL: DIQMNQSPSSLSASLGDTITITCHASQNIHVWLSWYQQKPGNIPKLLIYKASNLHTGVPSRFSGSGSGTGFTLTISSLQPEDIATYYCQQGHSYPLTFGGGTKLEIKR
binds	hAPJ antibody L4H4 (antibody, V domains shown, also called mouse ascites antibody L4H4) VH: EIKLVESGGGLVKPRGSLKLSCAASGFTFSSYAMSWVRQTPEKRLEWVASISSGGSIYLPDSLKGRFTISRDNAWNILYLQMNSLKSEDTAMYYCTRGRGNSSAWFAYWGQGTLVTVSA VL: DVLMTQTPLSLPVSLGDQASISCRSDQSLVHRTGNTHLDWYLQKPGQSPKLLIYKVSNRFSGVPDRFSGSGSGTDFTLKISRVEAEDLGVYYCFQASHIPFTFGSGTKLEIKR
